{"source": "patent US20250032605A1", "key": {"[1]": {"target": "SARS-2 RBD (wild-type SARS-CoV-2 receptor binding domain, monomer) (SARS-CoV-2) (UniProt P0DTC2)", "assay": "BLI, Fab on FAB2G sensor, RBD as analyte, apparent KD"}, "[2]": {"target": "SARS-2^hg (row Trimer)"}, "[3]": {"target": "WIV1 RBD (WIV1-CoV receptor binding domain, monomer) (WIV1-CoV)", "assay": "BLI, Fab on FAB2G sensor, RBD as analyte, apparent KD"}, "[4]": {"target": "SARS-1 RBD (SARS-CoV receptor binding domain, monomer) (SARS-CoV (SARS-1)) (UniProt P59594)", "assay": "BLI, Fab on FAB2G sensor, RBD as analyte, apparent KD"}}}
{"substance": "B38 Fab", "values": [{"measurement": "Kd", "setting": "[1]", "result": 970, "unit": "nM"}, {"measurement": "Kd", "setting": "[2]", "result": 3200, "unit": "nM"}]}
{"substance": "CR3022 Fab", "values": [{"measurement": "Kd", "setting": "[3]", "result": 37, "unit": "nM"}, {"measurement": "Kd", "setting": "[4]", "result": 27, "unit": "nM"}]}
